# Measured values published in paper PMC3331940.
# Target: Cdk4/cyclin D1 complex (UniProt P11802)
row,Substance,maximal extent of Cdk4 inhibition at saturating concentrations [%]
1,"p27-KID^(Y74E, Y89F) (domain or fragment)",98
2,"p27-KID^(pY74, pY88, Y89F) (domain or fragment)",80
3,"p27-KID^(pY88, Y89F) (domain or fragment)",95
